According to patent US20170082609A1:

What was measured:
[1] = target: CDHR3 Cys529→Tyr variant with Asn186→Ala (human) (UniProt Q6ZTQ4); experiment: cell-based or functional assay
[2] = target: CDHR3 Cys529→Tyr variant (human) (UniProt Q6ZTQ4); experiment: cell-based or functional assay
[3] = target: human cadherin-related family member 3 (CDHR3), wild-type (human) (UniProt Q6ZTQ4); experiment: cell-based or functional assay
[4] = target: CDHR3 Cys529→Tyr variant (human) (UniProt Q6ZTQ4); experiment: virus bound to transfected HeLa cells 2 h p.i., viral RNA by qRT-PCR
[5] = target: CDHR3 Cys529→Tyr variant with Asn186→Ala (human) (UniProt Q6ZTQ4); experiment: virus bound to transfected HeLa cells 2 h p.i., viral RNA by qRT-PCR, against CDHR3 Cys529→Tyr without the mutation

Substance: rhinovirus C15 (RV-C15), recombinant virus from the clinical isolate's infectious clone
- replication [1]: 70%
- progeny yield relative to the wild-type CDHR3 [2]: 10 fold
- replication in HeLa-E8 cells (viral RNA from 2 h to 24 h post infection) [2]: > 2 log
- replication (RV-C RNA compared to input) [3]: 2 log
- fold binding relative to the wild-type CDHR3 [4]: 10 fold
- percent impairment of virus binding [5]: > 70%
